This is an account of results in patent US20240209065A1.

Common to all, as to experiment: cell-based or functional assay
Assay [1] has as its target S protein of Pangolin-GD on S-pseudotyped VSV (Pangolin-GD (clade 1b sarbecovirus)).
In assay [2] the target is S protein of RaTG13 on S-pseudotyped VSV (RaTG13 (clade 1b sarbecovirus)).
Assay [3] addresses S protein of authentic SARS-CoV-2 G614 virus (SARS-CoV-2) (UniProt P0DTC2).

DXP-604 IgG (antibody): the IC50, S-pseudotyped VSV neutralization assay is 0.05 nM in assay [1] and 0.01 nM in assay [2]. Moreover, the IC50, microneutralization assay with authentic virus in assay [3] was found to be 0.3 nM.
